# Measured values: US20040248785A1 (UNIVERSITY OF MARYLAND BALTIMORE, published 2004)
# B1: A2 subunit (A2 domain) of factor VIII, isolated from thrombin-activated fVIII (other)
# chain: SVAKKHPKTWVHYIAAEEEDWDYAPLVLAPDDRSYKSQYLNNGPQRIGRKYKKVRFMAYTDETFKTREAIQHESGILGPLLYGEVGDTLLIIFKNQASRPYNIYPHGITDVRPLYSRRLPKGVKHLKDFPILPGEIFKYKWTVTVEDGPTKSDPRCLTRYYSSFVNMERDLASGLIGPLLICYKESVDQRGNQIMSDKRNVILFSVFDENRSWYLTENIQRFLPNPAGVQLEDPEFQASNIMHSINGYVFDSLQLSVCLHEVAYWYILSIGAQTDFLSVFFSGYTFKHKMVYEDTLTLFPFSGETVFMSMENPGLWILGCHNSDFRNRGMTALLKVSSCDKNTGDYYEDSYEDISAYLLSKNNAIEPR
# modifications: 125I-labelled where used as tracer
# notes: Protein was made from plasma-derived fVIII
# B2: 39 kDa receptor-associated protein (RAP), human, expressed in bacteria (ligand)
# chain: YSREKNQPKPSPKRESGEEFRMEKLNQLWEKAQRLHLPPVRLAELHADLKIQERDELAWKKLKLDGLDEDGEKEARLIRNLNVILAKYGLDGKKDARQVTSNSLSGTQEDGLDDPRLEKLWHKAKTSGKFSGEELDKLWREFLHHKEKVHEYNVLLETLSRTEEIHENVISPSDLSDIKGSVLHSRHTELKEKLRSINQGLDRLRRVSHQGYSTEAEFEEPRVIDLWDLAQSANLTDKELEAFREELKHFEAKIEKHNHYQKQLEIAHEKLRHAESVGDGERVSRSREKHALLEGRTKELGYTVKKHLQDLSGRISRARHNEL
# notes: also called alpha2 macroglobulin receptor-associated protein
# B3: heavy chain (HCh) of factor VIII (other)
# chain: ATRRYYLGAVELSWDYMQSDLGELPVDARFPPRVPKSFPFNTSVVYKKTLFVEFTDHLFNIAKPRPPWMGLLGPTIQAEVYDTVVITLKNMASHPVSLHAVGVSYWKASEGAEYDDQTSQREKEDDKVFPGGSHTYVWQVLKENGPMASDPLCLTYSYLSHVDLVKDLNSGLIGALLVCREGSLAKEKTQTLHKFILLFAVFDEGKSWHSETKNSLMQDRDAASARAWPKMHTVNGYVNRSLPGLIGCHRKSVYWHVIGMGTTPEVHSIFLEGHTFLVRNHRQASLEISPITFLTAQTLLMDLGQFLLFCHISSHQHDGMEAYVKVDSCPEEPQLRMKNNEEAEDYDDDLTDSEMDVVRFDDDNSPSFIQIRSVAKKHPKTWVHYIAAEEEDWDYAPLVLAPDDRSYKSQYLNNGPQRIGRKYKKVRFMAYTDETFKTREAIQHESGILGPLLYGEVGDTLLIIFKNQASRPYNIYPHGITDVRPLYSRRLPKGVKHLKDFPILPGEIFKYKWTVTVEDGPTKSDPRCLTRYYSSFVNMERDLASGLIGPLLICYKESVDQRGNQIMSDKRNVILFSVFDENRSWYLTENIQRFLPNPAGVQLEDPEFQASNIMHSINGYVFDSLQLSVCLHEVAYWYILSIGAQTDFLSVFFSGYTFKHKMVYEDTLTLFPFSGETVFMSMENPGLWILGCHNSDFRNRGMTALLKVSSCDKNTGDYYEDSYEDISAYLLSKNNAIEPRSFSQNSRHRSTRQKQFNATTIPENDIEKTDPWFAHRTPMPKIQNVSSSDLLMLLRQSPTPHGLSLSDLQEAKYETFSDDPSPGAIDSNNSLSEMTHFRPQLHHSGDMVFTPESGLQLRLNEKLGTTAATELKKLDFKVSSTSNNLISTIPSDNLAAGTDNTSSLGPPSMPVHYDSQLDTTLFGKKSSPLTESGGPLSLSEENNDSKLLESGLMNSQESSWGKNVSSTESGRLFKGKRAHGPALLTKDNALFKVSISLLKTNKTSNNSATNRKTHIDGPSLLIENSPSVWQNILESDTEFKKVTPLIHDRMLMDKNATALRLNHMSNKTTSSKNMEMVQQKKEGPIPPDAQNPDMSFFKMLFLPESARWIQRTHGKNSLNSGQGPSPKQLVSLGPEKSVEGQNFLSEKNKVVVGKGEFTKDVGLKEMVFPSSRNLFLTNLDNLHENNTHNQEKKIQEEIEKKETLIQENVVLPQIHTVTGTKNFMKNLFLLSTRQNVEGSYDGAYAPVLQDFRSLNDSTNRTKKHTAHFSKKGEEENLEGLGNQTKQIVEKYACTTRISPNTSQQNFVTQRSKRALKQFRLPLEETELEKRIIVDDTSTQWSKNMKHLTPSTLTQIDYNEKEKGAITQSPLSDCLTRSHSIPQANRSPLPIAKVSSFPSIRPIYLTRVLFQDNSSHLPAASYRKKDSGVQESSHFLQGAKKNNLSLAILTLEMTGDQREVGSLGTSATNSVTYKKVENTVLPKPDLPKTSGKVELLPKVHIYQKDLFPTETSNGSPGHLDLVEGSLLQGTEGAIKWNEANRPGKVPFLRVATESSAKTPSKLLDPLAWDNHYGTQIPKEEWKSQEKSPEKTAFKKKDTILSLNACESNHAIAAINEGQNKPEIEVTWAKQGRTERLCSQNPPVLKRHQR
# notes: Prepared from plasma-derived fVIII
# Tests used:
# [1] = molecular target: T1, low density lipoprotein receptor-related protein / alpha2-macroglobulin receptor (LRP), isolated from human … (human, UniProt Q07954 20-4544); experiment: heterologous displacement of 125I-fVIII (1 nM) from LRP-coated wells; isolated A2 domain as competitor
# T1 construct: mature; Native receptor coated on microtiter wells; also called purified LRP; immobilized LRP
# T1 sequence (Q07954 20-4544, form in doubt): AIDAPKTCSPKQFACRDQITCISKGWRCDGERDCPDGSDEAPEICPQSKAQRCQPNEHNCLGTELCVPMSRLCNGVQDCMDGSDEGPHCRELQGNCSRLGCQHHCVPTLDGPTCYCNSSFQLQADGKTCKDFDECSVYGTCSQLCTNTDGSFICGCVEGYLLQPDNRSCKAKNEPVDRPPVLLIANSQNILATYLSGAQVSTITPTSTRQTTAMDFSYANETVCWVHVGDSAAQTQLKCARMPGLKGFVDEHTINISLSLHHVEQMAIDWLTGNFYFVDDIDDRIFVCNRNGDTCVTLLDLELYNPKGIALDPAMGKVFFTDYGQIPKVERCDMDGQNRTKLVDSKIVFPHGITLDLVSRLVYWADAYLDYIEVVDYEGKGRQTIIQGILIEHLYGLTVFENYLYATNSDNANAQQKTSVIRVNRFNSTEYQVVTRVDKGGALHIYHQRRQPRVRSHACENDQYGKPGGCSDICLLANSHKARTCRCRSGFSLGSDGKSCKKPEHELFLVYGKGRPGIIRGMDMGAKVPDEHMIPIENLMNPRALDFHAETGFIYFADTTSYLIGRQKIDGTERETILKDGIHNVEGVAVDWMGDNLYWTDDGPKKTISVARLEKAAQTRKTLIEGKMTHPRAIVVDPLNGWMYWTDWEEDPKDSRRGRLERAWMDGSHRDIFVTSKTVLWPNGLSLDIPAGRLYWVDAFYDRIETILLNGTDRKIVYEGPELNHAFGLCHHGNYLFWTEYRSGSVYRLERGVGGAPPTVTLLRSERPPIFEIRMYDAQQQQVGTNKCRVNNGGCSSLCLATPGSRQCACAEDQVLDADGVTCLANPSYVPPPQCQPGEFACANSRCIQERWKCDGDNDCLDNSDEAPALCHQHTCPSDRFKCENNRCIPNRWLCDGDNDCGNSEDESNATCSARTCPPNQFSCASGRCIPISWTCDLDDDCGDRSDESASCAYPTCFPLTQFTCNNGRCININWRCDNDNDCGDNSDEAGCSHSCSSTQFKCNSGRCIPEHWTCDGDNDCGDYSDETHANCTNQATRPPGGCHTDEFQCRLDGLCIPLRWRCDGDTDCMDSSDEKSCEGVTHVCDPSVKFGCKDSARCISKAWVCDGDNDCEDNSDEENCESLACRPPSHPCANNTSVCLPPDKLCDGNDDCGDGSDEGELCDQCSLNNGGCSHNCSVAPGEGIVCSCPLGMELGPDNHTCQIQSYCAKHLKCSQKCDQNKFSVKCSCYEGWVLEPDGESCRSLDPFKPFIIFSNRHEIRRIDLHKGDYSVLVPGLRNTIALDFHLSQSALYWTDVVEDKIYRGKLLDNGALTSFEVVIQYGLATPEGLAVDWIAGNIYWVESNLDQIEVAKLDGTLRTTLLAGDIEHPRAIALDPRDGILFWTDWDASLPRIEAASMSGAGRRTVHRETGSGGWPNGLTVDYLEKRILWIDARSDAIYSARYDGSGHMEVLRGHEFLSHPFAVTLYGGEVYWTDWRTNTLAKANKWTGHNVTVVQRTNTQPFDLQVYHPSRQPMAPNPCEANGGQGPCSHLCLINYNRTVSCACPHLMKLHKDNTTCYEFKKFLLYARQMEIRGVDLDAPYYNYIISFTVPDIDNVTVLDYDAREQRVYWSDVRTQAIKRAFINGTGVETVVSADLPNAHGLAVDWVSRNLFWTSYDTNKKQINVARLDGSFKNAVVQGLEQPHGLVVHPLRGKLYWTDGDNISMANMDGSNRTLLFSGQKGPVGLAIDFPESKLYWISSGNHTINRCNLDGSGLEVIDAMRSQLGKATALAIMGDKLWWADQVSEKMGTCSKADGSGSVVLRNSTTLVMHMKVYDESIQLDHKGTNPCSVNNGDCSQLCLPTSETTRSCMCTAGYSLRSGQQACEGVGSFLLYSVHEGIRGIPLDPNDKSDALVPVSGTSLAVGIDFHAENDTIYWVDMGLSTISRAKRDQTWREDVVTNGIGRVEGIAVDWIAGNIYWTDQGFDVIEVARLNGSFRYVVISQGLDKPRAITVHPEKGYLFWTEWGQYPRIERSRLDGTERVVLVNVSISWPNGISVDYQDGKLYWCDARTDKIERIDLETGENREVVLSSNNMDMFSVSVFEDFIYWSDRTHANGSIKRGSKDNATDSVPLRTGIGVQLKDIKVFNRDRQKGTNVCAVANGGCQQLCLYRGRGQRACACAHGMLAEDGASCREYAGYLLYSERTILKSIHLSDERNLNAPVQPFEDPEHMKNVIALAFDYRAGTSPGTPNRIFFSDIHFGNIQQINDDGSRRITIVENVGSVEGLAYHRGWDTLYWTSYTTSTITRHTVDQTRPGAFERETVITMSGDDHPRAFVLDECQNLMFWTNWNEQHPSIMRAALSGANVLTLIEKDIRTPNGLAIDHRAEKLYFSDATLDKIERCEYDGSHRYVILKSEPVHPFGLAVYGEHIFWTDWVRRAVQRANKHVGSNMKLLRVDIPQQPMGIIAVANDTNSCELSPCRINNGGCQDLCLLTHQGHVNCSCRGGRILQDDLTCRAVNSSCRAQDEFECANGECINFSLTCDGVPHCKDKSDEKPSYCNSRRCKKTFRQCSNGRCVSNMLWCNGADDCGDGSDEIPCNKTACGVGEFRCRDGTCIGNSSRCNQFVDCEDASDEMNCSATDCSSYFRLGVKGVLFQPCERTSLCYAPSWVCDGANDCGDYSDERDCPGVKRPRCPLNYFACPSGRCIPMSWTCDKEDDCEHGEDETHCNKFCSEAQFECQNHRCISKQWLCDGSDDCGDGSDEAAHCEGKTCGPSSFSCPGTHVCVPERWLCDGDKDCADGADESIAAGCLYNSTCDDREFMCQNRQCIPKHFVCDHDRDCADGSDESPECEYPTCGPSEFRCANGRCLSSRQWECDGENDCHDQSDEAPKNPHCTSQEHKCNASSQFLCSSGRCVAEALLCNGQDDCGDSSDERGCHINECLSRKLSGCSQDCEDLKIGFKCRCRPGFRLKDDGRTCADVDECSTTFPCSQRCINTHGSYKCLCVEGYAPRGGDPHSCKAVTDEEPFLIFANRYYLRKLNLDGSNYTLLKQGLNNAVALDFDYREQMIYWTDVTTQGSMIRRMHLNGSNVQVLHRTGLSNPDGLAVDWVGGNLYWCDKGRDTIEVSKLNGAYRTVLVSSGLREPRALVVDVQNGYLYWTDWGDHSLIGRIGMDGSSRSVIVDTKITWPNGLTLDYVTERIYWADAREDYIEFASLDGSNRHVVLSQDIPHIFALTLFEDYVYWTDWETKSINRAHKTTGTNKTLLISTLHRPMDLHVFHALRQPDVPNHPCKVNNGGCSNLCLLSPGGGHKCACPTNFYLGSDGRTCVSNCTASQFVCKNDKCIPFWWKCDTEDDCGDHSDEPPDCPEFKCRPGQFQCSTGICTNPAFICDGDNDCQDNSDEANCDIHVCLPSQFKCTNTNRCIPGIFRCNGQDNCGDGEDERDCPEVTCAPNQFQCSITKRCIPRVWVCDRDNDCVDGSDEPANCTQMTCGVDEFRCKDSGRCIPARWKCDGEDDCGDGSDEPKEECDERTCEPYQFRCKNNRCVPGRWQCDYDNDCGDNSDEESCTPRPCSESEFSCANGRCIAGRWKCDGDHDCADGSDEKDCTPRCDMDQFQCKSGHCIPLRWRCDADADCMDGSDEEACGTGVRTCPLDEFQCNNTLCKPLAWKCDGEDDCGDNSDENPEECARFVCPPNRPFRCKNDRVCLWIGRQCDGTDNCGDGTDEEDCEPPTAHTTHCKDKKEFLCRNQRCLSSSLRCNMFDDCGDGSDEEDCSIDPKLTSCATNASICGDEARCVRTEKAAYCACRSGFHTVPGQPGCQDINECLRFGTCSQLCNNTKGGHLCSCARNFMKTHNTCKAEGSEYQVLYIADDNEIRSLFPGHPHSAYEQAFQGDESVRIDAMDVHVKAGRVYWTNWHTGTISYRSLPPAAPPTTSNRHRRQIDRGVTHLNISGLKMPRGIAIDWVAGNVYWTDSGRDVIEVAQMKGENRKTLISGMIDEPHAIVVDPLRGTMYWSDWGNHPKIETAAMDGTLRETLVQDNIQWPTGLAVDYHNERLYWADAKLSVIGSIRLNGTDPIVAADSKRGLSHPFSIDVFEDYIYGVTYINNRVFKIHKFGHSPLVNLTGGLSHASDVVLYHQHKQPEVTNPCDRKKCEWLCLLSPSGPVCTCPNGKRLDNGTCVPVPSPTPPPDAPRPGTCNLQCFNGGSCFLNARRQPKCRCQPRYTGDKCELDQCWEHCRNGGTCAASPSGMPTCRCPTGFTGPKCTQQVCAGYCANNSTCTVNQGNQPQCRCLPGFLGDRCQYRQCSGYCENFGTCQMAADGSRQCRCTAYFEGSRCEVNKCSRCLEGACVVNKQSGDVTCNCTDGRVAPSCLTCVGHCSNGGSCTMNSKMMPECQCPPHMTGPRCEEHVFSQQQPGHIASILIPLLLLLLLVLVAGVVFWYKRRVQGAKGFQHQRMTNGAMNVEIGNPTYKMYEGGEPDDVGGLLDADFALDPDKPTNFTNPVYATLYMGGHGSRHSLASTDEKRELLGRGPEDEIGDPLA
# Description: (§1) Homologous and heterologous ligand displacement assays were performed as previously described (Williams, S. E., et al., J. Biol. Chem. 267:9035-9040 (1992)). Microtiter wells were coated with purified LRP or BSA (3 μg/ml) in 50 mM Tris, 0.15 M NaCl, pH 8.0, for 16 h and then blocked with 3% BSA in TBS. Coated wells were incubated with ¹²⁵I-A2 or ¹²⁵I-fVIII in 20 mM Tris-buffered saline pH 7.4, containing 5 mM CaCl₂, 0.05% Tween-20 in the presence or absence of unlabeled competitors for 1 h at 37° C. The radioactivity bound to the wells was counted using a γ-counter (Pharmacia). Affinity constants were derived from homologous and heterologous displacement data using the computer program LIGAND (Munson, P T and Rodbard, D. Anal. Biochem. 107:220-239 (1980)).
# (§2) In order to localize fVIII region(s) involved in interaction with LRP, binding between ¹²⁵I-fVIII and immobilized LRP was competed by unlabeled fVIII fragments.
# [2] = molecular target: LRP on mouse embryonic fibroblast (MEF) cells (mouse, UniProt Q91ZX7 20-4545); experiment: cell-based or functional assay
# [3] = molecular target: T1, low density lipoprotein …; experiment: homologous displacement of 125I-A2 (5 nM) by unlabeled A2 (0-1750 nM) on immobilized LRP, program Ligand
# [4] = molecular target: T1, low density lipoprotein …; experiment: competition assay: peptide 484-509 added with 125I-fVIII (1 nM) to LRP-coated wells; competitor of fVIII for LRP
# Description: FIGS. 17A-17B. Effect of monoclonal antibodies and synthetic peptides on ¹²⁵fVIII binding to purified LRP. […] Binding of ¹²⁵I-fVIII in the presence antibodies or peptides is expressed as the percentage of its binding, when no competitor was added. The mean and standard deviation of the triplicate measurements are presented.
# as §1
# [5] = molecular target: T1, low density lipoprotein …; experiment: RAP as competitor of 125I-fVIII (1 nM) binding to LRP-coated wells, LIGAND fit
# [6] = molecular target: T1, low density lipoprotein …; experiment: solid-phase heterologous ligand displacement: RAP competes with 125I-fVIII (1 nM) for LRP-coated wells, 1 h at 37 C
# Description: FIGS. 15A-15B. Binding of ¹²⁵I-fVIII to purified LRP by ligand competition assay. ¹²⁵I-fVIII (1 nM) was incubated for 1 h at 37° C. in wells coated with LRP (•) or BSA (∘) in the presence of increasing concentrations of unlabeled competitors, fVIII (•, ∘) or vWf (Δ) (FIG. 15A) and RAP (•, ∘) (FIG. 15B). In the experiment (Δ), ¹²⁵I-fVIII was preincubated with vWf for 30 min at 37° C., prior to its addition to the wells. Following incubation, the wells were washed and ¹²⁵I-fVIII binding was determined. Binding of ¹²⁵I-fVIII in the presence of unlabeled fVIII, vWf, or RAP is expressed as the percentage of ¹²⁵fVIII binding, when no competitor was added. Each point represents the mean value of triplicates and the error bars display the standard deviation. The curves show a best fit of the data to a model describing heterologous ligand displacement from a single class of binding sites using the program LIGAND.
# Homologous and heterologous ligand displacement assays were performed as previously described (Williams, S. E., et al., J. Biol. Chem. 267:9035-9040 (1992)). Microtiter wells were coated with purified LRP or BSA (3 μg/ml) in 50 mM Tris, 0.15 M NaCl, pH 8.0, for 16 h and then blocked with 3% BSA in TBS. […] The radioactivity bound to the wells was counted using a γ-counter (Pharmacia). […]
# [7] = molecular target: T1, low density lipoprotein …; experiment: heterologous displacement of 125I-fVIII (1 nM) from LRP-coated wells; HCh as competitor
# Description: as §1, §2
binder,measurement,setting,value
B1,Ki,[1],132 nM
same,"inhibition of degradation of 125I-fVIII/vWf complex by MEF cells by a 1000-fold excess of A2, after 4 hours",[2],> 60%
same,"inhibition of internalization of 125I-fVIII/vWf complex by MEF cells by a 1000-fold excess of A2, after 4 hours",[2],> 70%
same,Kd,[3],130 nM
RPLYSRRLPKGVKHLKDFPILPGEIF [synthetic peptide of fVIII A2 domain residues 484-509],IC50 (read off the curve),[4],~1000 nM
B2,Ki,[5],2.5 nM
same,IC50 (read off the curve),[6],~2 nM
B3,Ki,[7],120 nM
